{"source": "patent US10544421", "about": "(NEW YORK STRUCTURAL BIOLOGY CENTER, dated 2020)", "binders": {"B1": {"name": "fasciculin-2 (other)", "chain": "TMCYSHTTTSRAILTNCGENSCYRKSRRHPPKMVLGRGCGCPPGDDNLEVKCCTSPDKCNY", "notes": "Used as the complexing ligand in rhAChE crystals; also called snake venom fasciculin-2"}}, "target": "T1, recombinant human acetylcholinesterase (rhAChE), cleaved protein from codon 33 to codon 574 (human, UniProt P22303 33-574)", "T1 construct": "range 33-574; Expressed in HEK 293-H cells, secreted, tag removed with his-TEV protease; also called purified rhAChE; human AChE", "test": "co-crystal of rhAChE complexed with fasciculin-2, X-ray crystallography (PDB 4EY8)", "protocol": "A crystallization buffer 44 is provided. The preferred crystallization buffer 44 contains 15-21% polyethylene glycol (PEG) 3350 and 0.17-0.21M potassium nitrate. Crystals of rhAChE are grown by sitting drop vapor diffusion at 22° C. against the crystallization buffer 44. See Block 46. Clustered hexagonal rod-shaped crystals (20×20×600 µm) are typically nucleated within 5 days and grow to full size within 3 days. Once the crystals are full size, they are harvested and flash frozen using liquid nitrogen. See Block 48. The harvested crystals 10 can then be cut and subjected to X-ray crystallography and modeling in the traditional manner. See Block 50. Since the rhAChE crystals 10 are not complexed, the X-ray crystallography produces models that more accurately represent AChE in the human brain. Additionally, the active sites that are obfuscated by snake venom in the prior art are open and active.\nReferring to FIG. 4 in conjunction with FIG. 1, it will be understood that in order to complex the rhAChE crystals 10, a small volume of the complexing ligand 52 is added to the crystallization buffer 44 to create a modified crystallization buffer 54. Crystals of complexed rhAChE are grown by sitting drop vapor diffusion against the modified crystallization buffer 54. The crystals are then grown, harvested and imaged in the manner previously described.", "data": [{"binder": "B1", "values": [{"measurement": "binding result", "value": "binds"}]}]}
